Experiments:
Experiment in all cases: purified protein
Type in all cases: biochemical, Irpex lacteus
Conditions in all cases: 0.1 mM H2O2, 10 mM sodium tartrate pH 3.5, 3.3 nM enzyme
purified protein [1] = substrate: CCn1c(=NN=c2sc3cc(S(=O)(=O)O)ccc3n2CC)sc2cc(S(=O)(=O)O)ccc21
purified protein [2] = substrate: COc1cccc(OC)c1O
purified protein [3] = substrate: Nc1c(S(=O)(=O)O)cc(Nc2cccc(S(=O)(=O)CCOS(=O)(=O)O)c2)c2c1C(=O)c1ccccc1C2=O

B1: Il-DyP4 (Irpex lacteus; W410F) (protein)
chain: SAGNDSLPFENIQGDILVGMKKDKEKFVFFHINNATAFKSVLKTYAPANITSVATIIGPVANQPLAFVNLAFSHAGFGALNVTDDLQDTAFSDGQFKDSPNLGDDTSTWEEAFKGTNVDGVFLIGSNDESITAQYRDDLNAKFGDAWTIVYDLDSAARPGNEKGHEHFGYLDGISNPTIPGFGTPHPGQAVVDPGIIFTGRSKDPVMNRPSWALDGSFLVFRKLKQLVPEFNKYVLDNALQNQAGNLTVEEGAELLGSRMFGRWKSGAPIDLSPDFDDPALGNDIERNNNFNYSHPGSDLATDQTRCPFTAHIRKTNPRDLEGQGLFGDTFHAIRAGTPYGPEVTDYEASSNTTTIDRGLAFVEYQSVIGNGFRFQQQAFANNPRFPFSKGPSIQLGLDPVIGQGSPRETFGLDPRNASESFTVPQVIISNGGEYFFSPSITAIVEKFAA
notes: monomer, model residues 6-450
Km (purified protein [1]): 752.00 ± 207.21 µM | kcat (purified protein [1]): 316.16 ± 61.61 s ^-1 | kcat/Km (purified protein [1]): (4.20 ± 2.90) × 10^5 M^-1 s^-1

B2: Il-DyP4 (Irpex lacteus; W294F) (protein)
chain: SAGNDSLPFENIQGDILVGMKKDKEKFVFFHINNATAFKSVLKTYAPANITSVATIIGPVANQPLAFVNLAFSHAGFGALNVTDDLQDTAFSDGQFKDSPNLGDDTSTWEEAFKGTNVDGVFLIGSNDESITAQYRDDLNAKFGDAWTIVYDLDSAARPGNEKGHEHFGYLDGISNPTIPGFGTPHPGQAVVDPGIIFTGRSKDPVMNRPSWALDGSFLVFRKLKQLVPEFNKYVLDNALQNQAGNLTVEEGAELLGSRMFGRFKSGAPIDLSPDFDDPALGNDIERNNNFNYSHPGSDLATDQTRCPFTAHIRKTNPRDLEGQGLFGDTFHAIRAGTPYGPEVTDYEASSNTTTIDRGLAFVEYQSVIGNGFRFQQQAWANNPRFPFSKGPSIQLGLDPVIGQGSPRETFGLDPRNASESFTVPQVIISNGGEYFFSPSITAIVEKFAA
notes: monomer, model residues 6-450
Km (purified protein [2]): 229.05 ± 30.79 µM | kcat (purified protein [2]): 71.21 ± 2.60 s ^-1 | kcat/Km (purified protein [2]): (3.11 ± 0.84) × 10^5 M^-1 s^-1 | Km (purified protein [1]): 71.87 ± 20.86 µM | kcat (purified protein [1]): 384.85 ± 42.27 s ^-1 | kcat/Km (purified protein [1]): (5.35 ± 2.02) × 10^6 M^-1 s^-1 | Km (purified protein [3]): 27.60 ± 7.70 µM | kcat (purified protein [3]): 46.11 ± 5.91 s ^-1 | kcat/Km (purified protein [3]): (1.67 ± 0.76) × 10^6 M^-1 s^-1

B3: Il-DyP4 (Irpex lacteus) (protein)
chain: SAGNDSLPFENIQGDILVGMKKDKEKFVFFHINNATAFKSVLKTYAPANITSVATIIGPVANQPLAFVNLAFSHAGFGALNVTDDLQDTAFSDGQFKDSPNLGDDTSTWEEAFKGTNVDGVFLIGSNDESITAQYRDDLNAKFGDAWTIVYDLDSAARPGNEKGHEHFGYLDGISNPTIPGFGTPHPGQAVVDPGIIFTGRSKDPVMNRPSWALDGSFLVFRKLKQLVPEFNKYVLDNALQNQAGNLTVEEGAELLGSRMFGRWKSGAPIDLSPDFDDPALGNDIERNNNFNYSHPGSDLATDQTRCPFTAHIRKTNPRDLEGQGLFGDTFHAIRAGTPYGPEVTDYEASSNTTTIDRGLAFVEYQSVIGNGFRFQQQAWANNPRFPFSKGPSIQLGLDPVIGQGSPRETFGLDPRNASESFTVPQVIISNGGEYFFSPSITAIVEKFAA
notes: monomer, model residues 6-450
Km (purified protein [2]): 8.98 ± 1.02 µM | kcat (purified protein [2]): 58.99 ± 0.45 s ^-1 | kcat/Km (purified protein [2]): (6.57 ± 0.44) × 10^6 M^-1 s^-1 | Km (purified protein [1]): 67.29 ± 13.05 µM | kcat (purified protein [1]): 790 ± 56.06 s ^-1 | kcat/Km (purified protein [1]): (1.17 ± 0.43) × 10^7 M^-1 s^-1 | Km (purified protein [3]): 139.87 ± 42.85 µM | kcat (purified protein [3]): 187.90 ± 37.00 s ^-1 | kcat/Km (purified protein [3]): (1.34 ± 0.86) × 10^6 M^-1 s^-1

B4: Il-DyP4 (Irpex lacteus; W294H) (protein)
chain: SAGNDSLPFENIQGDILVGMKKDKEKFVFFHINNATAFKSVLKTYAPANITSVATIIGPVANQPLAFVNLAFSHAGFGALNVTDDLQDTAFSDGQFKDSPNLGDDTSTWEEAFKGTNVDGVFLIGSNDESITAQYRDDLNAKFGDAWTIVYDLDSAARPGNEKGHEHFGYLDGISNPTIPGFGTPHPGQAVVDPGIIFTGRSKDPVMNRPSWALDGSFLVFRKLKQLVPEFNKYVLDNALQNQAGNLTVEEGAELLGSRMFGRHKSGAPIDLSPDFDDPALGNDIERNNNFNYSHPGSDLATDQTRCPFTAHIRKTNPRDLEGQGLFGDTFHAIRAGTPYGPEVTDYEASSNTTTIDRGLAFVEYQSVIGNGFRFQQQAWANNPRFPFSKGPSIQLGLDPVIGQGSPRETFGLDPRNASESFTVPQVIISNGGEYFFSPSITAIVEKFAA
notes: monomer, model residues 6-450
Km (purified protein [2]): 42.64 ± 6.32 µM | kcat (purified protein [2]): 54.29 ± 1.08 s ^-1 | kcat/Km (purified protein [2]): (1.27 ± 0.17) × 10^6 M^-1 s^-1

B5: Il-DyP4 (Irpex lacteus; W410Y) (protein)
chain: SAGNDSLPFENIQGDILVGMKKDKEKFVFFHINNATAFKSVLKTYAPANITSVATIIGPVANQPLAFVNLAFSHAGFGALNVTDDLQDTAFSDGQFKDSPNLGDDTSTWEEAFKGTNVDGVFLIGSNDESITAQYRDDLNAKFGDAWTIVYDLDSAARPGNEKGHEHFGYLDGISNPTIPGFGTPHPGQAVVDPGIIFTGRSKDPVMNRPSWALDGSFLVFRKLKQLVPEFNKYVLDNALQNQAGNLTVEEGAELLGSRMFGRWKSGAPIDLSPDFDDPALGNDIERNNNFNYSHPGSDLATDQTRCPFTAHIRKTNPRDLEGQGLFGDTFHAIRAGTPYGPEVTDYEASSNTTTIDRGLAFVEYQSVIGNGFRFQQQAYANNPRFPFSKGPSIQLGLDPVIGQGSPRETFGLDPRNASESFTVPQVIISNGGEYFFSPSITAIVEKFAA
notes: monomer, model residues 6-450
Km (purified protein [1]): 275.07 ± 77.79 µM | kcat (purified protein [1]): 88.38 ± 15.66 s ^-1 | kcat/Km (purified protein [1]): (3.21 ± 2.01) × 10^5 M^-1 s^-1

B6: Il-DyP4 (Irpex lacteus; W294R) (protein)
chain: SAGNDSLPFENIQGDILVGMKKDKEKFVFFHINNATAFKSVLKTYAPANITSVATIIGPVANQPLAFVNLAFSHAGFGALNVTDDLQDTAFSDGQFKDSPNLGDDTSTWEEAFKGTNVDGVFLIGSNDESITAQYRDDLNAKFGDAWTIVYDLDSAARPGNEKGHEHFGYLDGISNPTIPGFGTPHPGQAVVDPGIIFTGRSKDPVMNRPSWALDGSFLVFRKLKQLVPEFNKYVLDNALQNQAGNLTVEEGAELLGSRMFGRRKSGAPIDLSPDFDDPALGNDIERNNNFNYSHPGSDLATDQTRCPFTAHIRKTNPRDLEGQGLFGDTFHAIRAGTPYGPEVTDYEASSNTTTIDRGLAFVEYQSVIGNGFRFQQQAWANNPRFPFSKGPSIQLGLDPVIGQGSPRETFGLDPRNASESFTVPQVIISNGGEYFFSPSITAIVEKFAA
notes: monomer, model residues 6-450
Km (purified protein [2]): 1082.00 ± 283.00 µM | kcat (purified protein [2]): 18.28 ± 2.30 s ^-1 | kcat/Km (purified protein [2]): (1.69 ± 0.81) × 10^4 M^-1 s^-1 | Km (purified protein [1]): 19.47 ± 4.41 µM | kcat (purified protein [1]): 52.78 ± 2.86 s ^-1 | kcat/Km (purified protein [1]): (2.71 ± 0.65) × 10^6 M^-1 s^-1

B7: Il-DyP4 (Irpex lacteus; W139F) (protein)
chain: SAGNDSLPFENIQGDILVGMKKDKEKFVFFHINNATAFKSVLKTYAPANITSVATIIGPVANQPLAFVNLAFSHAGFGALNVTDDLQDTAFSDGQFKDSPNLGDDTSTFEEAFKGTNVDGVFLIGSNDESITAQYRDDLNAKFGDAWTIVYDLDSAARPGNEKGHEHFGYLDGISNPTIPGFGTPHPGQAVVDPGIIFTGRSKDPVMNRPSWALDGSFLVFRKLKQLVPEFNKYVLDNALQNQAGNLTVEEGAELLGSRMFGRWKSGAPIDLSPDFDDPALGNDIERNNNFNYSHPGSDLATDQTRCPFTAHIRKTNPRDLEGQGLFGDTFHAIRAGTPYGPEVTDYEASSNTTTIDRGLAFVEYQSVIGNGFRFQQQAWANNPRFPFSKGPSIQLGLDPVIGQGSPRETFGLDPRNASESFTVPQVIISNGGEYFFSPSITAIVEKFAA
notes: monomer, model residues 6-450
Km (purified protein [2]): 172.71 ± 38.31 µM | kcat (purified protein [2]): 69.65 ± 3.46 s ^-1 | kcat/Km (purified protein [2]): (4.03 ± 0.90) × 10^5 M^-1 s^-1

B8: Il-DyP4 (Irpex lacteus; W294Y) (protein)
chain: SAGNDSLPFENIQGDILVGMKKDKEKFVFFHINNATAFKSVLKTYAPANITSVATIIGPVANQPLAFVNLAFSHAGFGALNVTDDLQDTAFSDGQFKDSPNLGDDTSTWEEAFKGTNVDGVFLIGSNDESITAQYRDDLNAKFGDAWTIVYDLDSAARPGNEKGHEHFGYLDGISNPTIPGFGTPHPGQAVVDPGIIFTGRSKDPVMNRPSWALDGSFLVFRKLKQLVPEFNKYVLDNALQNQAGNLTVEEGAELLGSRMFGRYKSGAPIDLSPDFDDPALGNDIERNNNFNYSHPGSDLATDQTRCPFTAHIRKTNPRDLEGQGLFGDTFHAIRAGTPYGPEVTDYEASSNTTTIDRGLAFVEYQSVIGNGFRFQQQAWANNPRFPFSKGPSIQLGLDPVIGQGSPRETFGLDPRNASESFTVPQVIISNGGEYFFSPSITAIVEKFAA
notes: monomer, model residues 6-450
Km (purified protein [2]): 953.00 ± 102.70 µM | kcat (purified protein [2]): 56.25 ± 2.81 s ^-1 | kcat/Km (purified protein [2]): (5.90 ± 2.74) × 10^4 M^-1 s^-1
